We go through 19 variants from the supplement of paper PMC10266784.

The chains are these.
B1: library; numbered along this chain (parent)
chain: MAAAAAAAAEQQSSNGPVKKSMREKAVERRSVNKEHNSNFKAGYIPIDEDRLHKTGLRGRKGNLAICVIILLFILAVINLIITLVIWAVIRIGPNGCDSMEFHESGLLRFKQVSDMGVIHPLYKSTVGGRRNENLVITGNNQPIVFQQGTTKLSVENNKTSITSDIGMQFFDPRTQNILFSTDYETHEFHLPSGVKSLNVQKASTERITSNATSDLNIKVDGRAIVRGNEGVFIMGKTIEFHMGGNMELKAENSIILNGSVMVSTTRLPSSSSGDQLGSGDWVRYKLCMCADGTLFKVQVTSQNMGCQISDNPCGNTH

In this data set the parent is B1. In words: SGCB cell-surface expression functional score (HA stain, bin4 vs bin1, normalised to synonymous) (log10 ratio); higher = more cell-surface SGCB (functional). Put shortly:
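Human beta-sarcoglycan, tagged with HA and fused to YFP, was built into codon-saturation libraries and delivered by lentivirus at MOI <0.1 into HEK293 cells that stably express alpha-, gamma- and delta-sarcoglycan. After 72 hours, YFP-positive cells were sorted and grown for 5–7 days, then stained on ice with Alexa Fluor 647 anti-HA, fixed, sorted into four 5% intensity bins and amplicon-sequenced. Each variant's functional score is the log ratio of its frequency in the highest bin to that in the lowest bin, taken as the median across codons and transductions. Transductions were done in duplicate, and synonymous variants were scaled per section to mean 0, SD 0.5.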
As to MAAAAAAAAEQQSSNGPVKKSMREKAVERRSVNKEHNSNFKAGYIPIDEDRLHKTGLRGRKGNLAICVIILLFILAVINLIITLVIWAVIRIGPNGCDSMEFHESGLLRFKQVSDMGVIHPLYKSTVGGRRNENLVITGNNQPIVFQQGTTKLSVENNKTSITSDIGMQFFDPRTQNILFSTDYETHEFHLPSGVKSLNVQKASTERITSNATSDLNIKVDGRAIVRGNEGVFIMGKTIEFHMGGNMELKAENSIILNGKVMVSTTRLPSSSSGDQLGSGDWVRYKLCMCADGTLFKVQVTSQNMGCQISDNPCGNTH [S260K], the “SGCB cell-surface expression functional score (log10)” value was -0.81.

For the variant MAAAAAAAAEQQSSNGPVKKSMREKAVERRSVNKEHNSNFKAGYIPIDEDRLHKTGLRGRKGNLAICVIILLFILAVINLIITLVIWAVIRIGPNGCDSMEFHESGLLRFKQVSDMGVIHPLYKSTVGGRRNENLVITGNNQPIVFQQGTTKLSVENNKTSITSDIGMQFFDPRTQNILFSTDYETHEFHLPSGVKSLNVQKASTERITSNATSDLNIKVDGRAIVRGNEGVFIMGKTIEFHMGGNMELKAENSIILNGIVMVSTTRLPSSSSGDQLGSGDWVRYKLCMCADGTLFKVQVTSQNMGCQISDNPCGNTH [S260I], the “SGCB cell-surface expression functional score (log10)” value was -0.71. MAAAAAAAAEQQSSNGPVKKSMREKAVERRSVNKEHNSNFKAGYIPIDEDRLHKTGLRGRKGNLAICVIILLFILAVINLIITLVIWAVIRIGPNGCDSMEFHESGLLRFKQVSDMGVIHPLYKSTVGGRRNENLVITGNNQPIVFQQGTTKLSVENNKTSITSDIGMQFFDPRTQNILFSTDYETHEFHLPSGVKSLNVQKASTERITSNATSDLNIKVDGRAIVRGNEGVFIMGKTIEFHMGGNMELKAENSIILNGFVMVSTTRLPSSSSGDQLGSGDWVRYKLCMCADGTLFKVQVTSQNMGCQISDNPCGNTH [S260F]: the “SGCB cell-surface expression functional score (log10)” value came out at 0.4. The result for MAAAAAAAAEQQSSNGPVKKSMREKAVERRSVNKEHNSNFKAGYIPIDEDRLHKTGLRGRKGNLAICVIILLFILAVINLIITLVIWAVIRIGPNGCDSMEFHESGLLRFKQVSDMGVIHPLYKSTVGGRRNENLVITGNNQPIVFQQGTTKLSVENNKTSITSDIGMQFFDPRTQNILFSTDYETHEFHLPSGVKSLNVQKASTERITSNATSDLNIKVDGRAIVRGNEGVFIMGKTIEFHMGGNMELKAENSIILNGLVMVSTTRLPSSSSGDQLGSGDWVRYKLCMCADGTLFKVQVTSQNMGCQISDNPCGNTH [S260L] reads -0.22; that for MAAAAAAAAEQQSSNGPVKKSMREKAVERRSVNKEHNSNFKAGYIPIDEDRLHKTGLRGRKGNLAICVIILLFILAVINLIITLVIWAVIRIGPNGCDSMEFHESGLLRFKQVSDMGVIHPLYKSTVGGRRNENLVITGNNQPIVFQQGTTKLSVENNKTSITSDIGMQFFDPRTQNILFSTDYETHEFHLPSGVKSLNVQKASTERITSNATSDLNIKVDGRAIVRGNEGVFIMGKTIEFHMGGNMELKAENSIILNGGVMVSTTRLPSSSSGDQLGSGDWVRYKLCMCADGTLFKVQVTSQNMGCQISDNPCGNTH [S260G], 0.77. As for MAAAAAAAAEQQSSNGPVKKSMREKAVERRSVNKEHNSNFKAGYIPIDEDRLHKTGLRGRKGNLAICVIILLFILAVINLIITLVIWAVIRIGPNGCDSMEFHESGLLRFKQVSDMGVIHPLYKSTVGGRRNENLVITGNNQPIVFQQGTTKLSVENNKTSITSDIGMQFFDPRTQNILFSTDYETHEFHLPSGVKSLNVQKASTERITSNATSDLNIKVDGRAIVRGNEGVFIMGKTIEFHMGGNMELKAENSIILNGPVMVSTTRLPSSSSGDQLGSGDWVRYKLCMCADGTLFKVQVTSQNMGCQISDNPCGNTH [S260P], the “SGCB cell-surface expression functional score (log10)” value came to 0.71. For MAAAAAAAAEQQSSNGPVKKSMREKAVERRSVNKEHNSNFKAGYIPIDEDRLHKTGLRGRKGNLAICVIILLFILAVINLIITLVIWAVIRIGPNGCDSMEFHESGLLRFKQVSDMGVIHPLYKSTVGGRRNENLVITGNNQPIVFQQGTTKLSVENNKTSITSDIGMQFFDPRTQNILFSTDYETHEFHLPSGVKSLNVQKASTERITSNATSDLNIKVDGRAIVRGNEGVFIMGKTIEFHMGGNMELKAENSIILNGNVMVSTTRLPSSSSGDQLGSGDWVRYKLCMCADGTLFKVQVTSQNMGCQISDNPCGNTH [S260N], the “SGCB cell-surface expression functional score (log10)” value came to 0.25. The result for MAAAAAAAAEQQSSNGPVKKSMREKAVERRSVNKEHNSNFKAGYIPIDEDRLHKTGLRGRKGNLAICVIILLFILAVINLIITLVIWAVIRIGPNGCDSMEFHESGLLRFKQVSDMGVIHPLYKSTVGGRRNENLVITGNNQPIVFQQGTTKLSVENNKTSITSDIGMQFFDPRTQNILFSTDYETHEFHLPSGVKSLNVQKASTERITSNATSDLNIKVDGRAIVRGNEGVFIMGKTIEFHMGGNMELKAENSIILNGVVMVSTTRLPSSSSGDQLGSGDWVRYKLCMCADGTLFKVQVTSQNMGCQISDNPCGNTH [S260V] reads 0.01.

On to MAAAAAAAAEQQSSNGPVKKSMREKAVERRSVNKEHNSNFKAGYIPIDEDRLHKTGLRGRKGNLAICVIILLFILAVINLIITLVIWAVIRIGPNGCDSMEFHESGLLRFKQVSDMGVIHPLYKSTVGGRRNENLVITGNNQPIVFQQGTTKLSVENNKTSITSDIGMQFFDPRTQNILFSTDYETHEFHLPSGVKSLNVQKASTERITSNATSDLNIKVDGRAIVRGNEGVFIMGKTIEFHMGGNMELKAENSIILNGCVMVSTTRLPSSSSGDQLGSGDWVRYKLCMCADGTLFKVQVTSQNMGCQISDNPCGNTH [S260C], for which the “SGCB cell-surface expression functional score (log10)” value came to 0.5.

In the case of MAAAAAAAAEQQSSNGPVKKSMREKAVERRSVNKEHNSNFKAGYIPIDEDRLHKTGLRGRKGNLAICVIILLFILAVINLIITLVIWAVIRIGPNGCDSMEFHESGLLRFKQVSDMGVIHPLYKSTVGGRRNENLVITGNNQPIVFQQGTTKLSVENNKTSITSDIGMQFFDPRTQNILFSTDYETHEFHLPSGVKSLNVQKASTERITSNATSDLNIKVDGRAIVRGNEGVFIMGKTIEFHMGGNMELKAENSIILNGMVMVSTTRLPSSSSGDQLGSGDWVRYKLCMCADGTLFKVQVTSQNMGCQISDNPCGNTH [S260M], the “SGCB cell-surface expression functional score (log10)” value was 0.98. The figure for MAAAAAAAAEQQSSNGPVKKSMREKAVERRSVNKEHNSNFKAGYIPIDEDRLHKTGLRGRKGNLAICVIILLFILAVINLIITLVIWAVIRIGPNGCDSMEFHESGLLRFKQVSDMGVIHPLYKSTVGGRRNENLVITGNNQPIVFQQGTTKLSVENNKTSITSDIGMQFFDPRTQNILFSTDYETHEFHLPSGVKSLNVQKASTERITSNATSDLNIKVDGRAIVRGNEGVFIMGKTIEFHMGGNMELKAENSIILNGAVMVSTTRLPSSSSGDQLGSGDWVRYKLCMCADGTLFKVQVTSQNMGCQISDNPCGNTH [S260A] is 0.52; for MAAAAAAAAEQQSSNGPVKKSMREKAVERRSVNKEHNSNFKAGYIPIDEDRLHKTGLRGRKGNLAICVIILLFILAVINLIITLVIWAVIRIGPNGCDSMEFHESGLLRFKQVSDMGVIHPLYKSTVGGRRNENLVITGNNQPIVFQQGTTKLSVENNKTSITSDIGMQFFDPRTQNILFSTDYETHEFHLPSGVKSLNVQKASTERITSNATSDLNIKVDGRAIVRGNEGVFIMGKTIEFHMGGNMELKAENSIILNGTVMVSTTRLPSSSSGDQLGSGDWVRYKLCMCADGTLFKVQVTSQNMGCQISDNPCGNTH [S260T] it is 0.41; for MAAAAAAAAEQQSSNGPVKKSMREKAVERRSVNKEHNSNFKAGYIPIDEDRLHKTGLRGRKGNLAICVIILLFILAVINLIITLVIWAVIRIGPNGCDSMEFHESGLLRFKQVSDMGVIHPLYKSTVGGRRNENLVITGNNQPIVFQQGTTKLSVENNKTSITSDIGMQFFDPRTQNILFSTDYETHEFHLPSGVKSLNVQKASTERITSNATSDLNIKVDGRAIVRGNEGVFIMGKTIEFHMGGNMELKAENSIILNGHVMVSTTRLPSSSSGDQLGSGDWVRYKLCMCADGTLFKVQVTSQNMGCQISDNPCGNTH [S260H] it is 0.83. Take MAAAAAAAAEQQSSNGPVKKSMREKAVERRSVNKEHNSNFKAGYIPIDEDRLHKTGLRGRKGNLAICVIILLFILAVINLIITLVIWAVIRIGPNGCDSMEFHESGLLRFKQVSDMGVIHPLYKSTVGGRRNENLVITGNNQPIVFQQGTTKLSVENNKTSITSDIGMQFFDPRTQNILFSTDYETHEFHLPSGVKSLNVQKASTERITSNATSDLNIKVDGRAIVRGNEGVFIMGKTIEFHMGGNMELKAENSIILNGQVMVSTTRLPSSSSGDQLGSGDWVRYKLCMCADGTLFKVQVTSQNMGCQISDNPCGNTH [S260Q]: the “SGCB cell-surface expression functional score (log10)” value is -0.24.

Turning to MAAAAAAAAEQQSSNGPVKKSMREKAVERRSVNKEHNSNFKAGYIPIDEDRLHKTGLRGRKGNLAICVIILLFILAVINLIITLVIWAVIRIGPNGCDSMEFHESGLLRFKQVSDMGVIHPLYKSTVGGRRNENLVITGNNQPIVFQQGTTKLSVENNKTSITSDIGMQFFDPRTQNILFSTDYETHEFHLPSGVKSLNVQKASTERITSNATSDLNIKVDGRAIVRGNEGVFIMGKTIEFHMGGNMELKAENSIILNGRVMVSTTRLPSSSSGDQLGSGDWVRYKLCMCADGTLFKVQVTSQNMGCQISDNPCGNTH [S260R], the “SGCB cell-surface expression functional score (log10)” value worked out at 0.87. Regarding MAAAAAAAAEQQSSNGPVKKSMREKAVERRSVNKEHNSNFKAGYIPIDEDRLHKTGLRGRKGNLAICVIILLFILAVINLIITLVIWAVIRIGPNGCDSMEFHESGLLRFKQVSDMGVIHPLYKSTVGGRRNENLVITGNNQPIVFQQGTTKLSVENNKTSITSDIGMQFFDPRTQNILFSTDYETHEFHLPSGVKSLNVQKASTERITSNATSDLNIKVDGRAIVRGNEGVFIMGKTIEFHMGGNMELKAENSIILNGEVMVSTTRLPSSSSGDQLGSGDWVRYKLCMCADGTLFKVQVTSQNMGCQISDNPCGNTH [S260E], the “SGCB cell-surface expression functional score (log10)” value was -0.09. For the variant MAAAAAAAAEQQSSNGPVKKSMREKAVERRSVNKEHNSNFKAGYIPIDEDRLHKTGLRGRKGNLAICVIILLFILAVINLIITLVIWAVIRIGPNGCDSMEFHESGLLRFKQVSDMGVIHPLYKSTVGGRRNENLVITGNNQPIVFQQGTTKLSVENNKTSITSDIGMQFFDPRTQNILFSTDYETHEFHLPSGVKSLNVQKASTERITSNATSDLNIKVDGRAIVRGNEGVFIMGKTIEFHMGGNMELKAENSIILNGDVMVSTTRLPSSSSGDQLGSGDWVRYKLCMCADGTLFKVQVTSQNMGCQISDNPCGNTH [S260D], the “SGCB cell-surface expression functional score (log10)” value is -0.04. For the variant MAAAAAAAAEQQSSNGPVKKSMREKAVERRSVNKEHNSNFKAGYIPIDEDRLHKTGLRGRKGNLAICVIILLFILAVINLIITLVIWAVIRIGPNGCDSMEFHESGLLRFKQVSDMGVIHPLYKSTVGGRRNENLVITGNNQPIVFQQGTTKLSVENNKTSITSDIGMQFFDPRTQNILFSTDYETHEFHLPSGVKSLNVQKASTERITSNATSDLNIKVDGRAIVRGNEGVFIMGKTIEFHMGGNMELKAENSIILNYSVMVSTTRLPSSSSGDQLGSGDWVRYKLCMCADGTLFKVQVTSQNMGCQISDNPCGNTH [G259Y], the “SGCB cell-surface expression functional score (log10)” value is -1.22. The figure for MAAAAAAAAEQQSSNGPVKKSMREKAVERRSVNKEHNSNFKAGYIPIDEDRLHKTGLRGRKGNLAICVIILLFILAVINLIITLVIWAVIRIGPNGCDSMEFHESGLLRFKQVSDMGVIHPLYKSTVGGRRNENLVITGNNQPIVFQQGTTKLSVENNKTSITSDIGMQFFDPRTQNILFSTDYETHEFHLPSGVKSLNVQKASTERITSNATSDLNIKVDGRAIVRGNEGVFIMGKTIEFHMGGNMELKAENSIILNWSVMVSTTRLPSSSSGDQLGSGDWVRYKLCMCADGTLFKVQVTSQNMGCQISDNPCGNTH [G259W] is -1.53.
